The target of data set [1] is SauUSI (Staphylococcus aureus). The experiment in a line: SEC-MALS; 1 mg/ml SauUSI injected on Superdex 200 in 50 mM Tris-HCl pH 8, 50 mM NaCl, 1 mM DTT.
For a further data set, the target named is T1, SauUSI (Staphylococcus aureus, UniProt Q2FVC3 1-953).
T1 sequence: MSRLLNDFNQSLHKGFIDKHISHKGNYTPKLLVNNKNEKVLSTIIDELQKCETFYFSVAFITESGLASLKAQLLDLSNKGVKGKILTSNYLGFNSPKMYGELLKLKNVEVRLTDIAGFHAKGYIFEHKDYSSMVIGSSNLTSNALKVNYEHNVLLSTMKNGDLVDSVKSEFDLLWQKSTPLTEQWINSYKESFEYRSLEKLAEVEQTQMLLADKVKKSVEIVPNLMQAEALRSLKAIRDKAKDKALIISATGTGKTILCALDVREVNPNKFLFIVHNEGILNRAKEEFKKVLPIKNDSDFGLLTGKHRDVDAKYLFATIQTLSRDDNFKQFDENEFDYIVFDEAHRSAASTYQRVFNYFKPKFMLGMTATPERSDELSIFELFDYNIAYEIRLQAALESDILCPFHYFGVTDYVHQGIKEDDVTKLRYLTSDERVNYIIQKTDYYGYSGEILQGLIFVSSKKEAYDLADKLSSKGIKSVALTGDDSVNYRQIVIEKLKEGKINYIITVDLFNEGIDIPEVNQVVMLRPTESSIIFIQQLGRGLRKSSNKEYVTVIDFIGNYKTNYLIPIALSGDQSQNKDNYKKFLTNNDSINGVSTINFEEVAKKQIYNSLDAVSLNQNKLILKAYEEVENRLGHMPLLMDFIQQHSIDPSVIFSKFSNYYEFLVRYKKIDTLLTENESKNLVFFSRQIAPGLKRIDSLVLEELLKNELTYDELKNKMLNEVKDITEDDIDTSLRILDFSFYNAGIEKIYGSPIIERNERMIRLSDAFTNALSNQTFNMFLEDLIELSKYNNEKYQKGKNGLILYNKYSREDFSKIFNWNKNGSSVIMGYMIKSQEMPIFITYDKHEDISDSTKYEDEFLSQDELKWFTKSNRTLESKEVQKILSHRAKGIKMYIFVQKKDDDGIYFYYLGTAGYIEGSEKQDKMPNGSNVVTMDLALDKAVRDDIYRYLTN
The experiment in a line: EMSA; 250 nM DNA; shift first detected at 0.1 uM SauUSI (0.05-1.6 uM tested); Protein and DNA incubated 20 min on ice; 5% native PAGE, ethidium bromide stain; binding buffer, salt and pH not stated. The note with it: protein: recombinant; tags: His-tag (HisTrap purified); chain copies: 2; blunt.

These results are taken from article PMC7913695, “Mechanism of DNA cleavage by the endonuclease SauUSI: a major barrier to horizontal gene transfer and antibiotic resistance in Staphylococcus aureus”.

Molecule SauUSI (enzyme) showed a stoichiometry N in data set [1] of 2.

B1: EMSA methylated 60 bp (specific DNA) (dsDNA)
DNA 1: GCCGCGGATCCTTCACAAGACGATTACCGGCGCTGAAAGACCAGCATATGCAATTTGACT
DNA 2: AGTCAAATTGCATATGCTGGTCTTTCAGCGCCGGTAATCGTCTTGTGAAGGATCCGCGGC
modifications: 5-methyl-dC at position 28 of strand 1 and position 31 of strand 2 (both strands)
With B1, the binding result with SauUSI was “binds”.
